Assay [1] has as its target MARV Ci67 GP1-649 (Marburg virus, isolate Ci67). As to the kind of experiment: SPR (BIAcore 3000), GP1-649 amine-coupled on CM5, scFv in solution.
Assay [2] concerns the target T1, Glycoprotein of Marburg virus isolate Musoke in whole irradiated virus (Marburg virus, isolate Musoke, UniProt P35253 19-681).
T1 sequence: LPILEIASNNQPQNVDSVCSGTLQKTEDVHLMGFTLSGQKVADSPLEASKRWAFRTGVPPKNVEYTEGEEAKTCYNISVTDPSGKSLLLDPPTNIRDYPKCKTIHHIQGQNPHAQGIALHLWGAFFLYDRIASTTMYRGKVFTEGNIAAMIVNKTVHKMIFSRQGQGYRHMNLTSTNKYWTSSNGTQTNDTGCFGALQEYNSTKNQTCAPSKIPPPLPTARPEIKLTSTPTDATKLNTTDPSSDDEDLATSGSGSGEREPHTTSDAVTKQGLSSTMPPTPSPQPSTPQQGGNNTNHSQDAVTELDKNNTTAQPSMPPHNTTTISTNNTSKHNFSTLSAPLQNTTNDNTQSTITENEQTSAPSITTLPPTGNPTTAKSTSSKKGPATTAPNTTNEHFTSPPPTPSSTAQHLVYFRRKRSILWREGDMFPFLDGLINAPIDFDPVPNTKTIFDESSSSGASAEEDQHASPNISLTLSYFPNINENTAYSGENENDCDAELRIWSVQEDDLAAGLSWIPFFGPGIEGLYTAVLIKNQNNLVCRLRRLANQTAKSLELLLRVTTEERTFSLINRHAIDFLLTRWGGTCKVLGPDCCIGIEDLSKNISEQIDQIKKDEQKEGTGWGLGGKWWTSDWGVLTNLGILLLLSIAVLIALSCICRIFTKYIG
As to the kind of experiment: Western blot of scFv-Fc on whole irradiated virus, reduced.

For assay [3], the target named is T2, Glycoprotein of Ravn virus in whole irradiated virus (Ravn virus, UniProt Q1PDC7 19-681).
T2 sequence: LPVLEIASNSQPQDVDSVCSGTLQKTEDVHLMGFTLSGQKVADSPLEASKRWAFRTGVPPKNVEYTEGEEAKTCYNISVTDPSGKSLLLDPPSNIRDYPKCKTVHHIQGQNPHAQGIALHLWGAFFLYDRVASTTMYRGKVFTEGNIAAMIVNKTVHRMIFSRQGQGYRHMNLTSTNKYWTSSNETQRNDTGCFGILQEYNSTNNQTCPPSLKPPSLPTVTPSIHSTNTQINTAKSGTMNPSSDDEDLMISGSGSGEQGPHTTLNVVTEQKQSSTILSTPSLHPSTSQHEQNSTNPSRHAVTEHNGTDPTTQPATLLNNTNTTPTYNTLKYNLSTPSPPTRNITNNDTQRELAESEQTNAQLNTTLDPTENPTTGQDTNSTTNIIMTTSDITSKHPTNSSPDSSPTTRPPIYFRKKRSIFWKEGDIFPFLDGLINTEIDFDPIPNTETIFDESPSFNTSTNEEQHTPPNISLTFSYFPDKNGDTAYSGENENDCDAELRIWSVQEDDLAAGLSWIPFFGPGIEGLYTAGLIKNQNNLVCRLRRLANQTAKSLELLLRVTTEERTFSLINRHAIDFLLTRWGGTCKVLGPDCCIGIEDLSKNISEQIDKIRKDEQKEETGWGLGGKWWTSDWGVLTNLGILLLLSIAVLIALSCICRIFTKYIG
The assay can be described thus: Western blot on whole irradiated virus, reduced. Background: In western blotting, separated proteins are transferred to a membrane and probed.

B1: scFv R4G7 (scFv, V domains shown)
VH: EVQLLESGGDLVQPGESLRLSCVVSGISFSNHGMTWVRQAPGKGLDWVSSIDSDGGGTFYADSVKGRFTISRDDSNNTVSLQMNSLRVEDTAVYYCAARHEYSDYYWGRGVPVTVSS
VL: DIELTQSPSILSVSPGERATLSCRASQSVGNRLAWYHQRPGQAPRLLIYGASSRPTGIPDRFSASGSGTEFTLTISSLEPEDVGVYYCQQNSKWPLTFGGGTKVEIK
By Kd is commonly meant a measure of binding affinity in units of concentration. A lower Kd goes with higher affinity. Broadly, the koff is the rate constant with which the complex falls apart. The low end stands for a long-lived complex, the high end for a short-lived complex. In general, kon refers to the second-order rate constant of association. A high value points to fast association. On to B1, for which, in assay [1], the dissociation constant Kd came out at 4.6 nM, the koff was determined as 0.000379 s⁻¹ and the association rate constant (kon) was 81900 M⁻¹ s⁻¹.

B2: scFv R4H12 (scFv, V domains shown)
VH: QVQLLESGGGLVQPGESLRLSCVVSGLSFSNHGVTWVRQAPGKGLDWVSSIDTDGGGTFYGDSVKGRFTISRDDSKNTVSLEMNSLRVEDTAVYYCAARQEYSDYYWGRGVPVTVSS
VL: EIELTQSPSTLSVSPGERATLSCRASQSVGSRLAWYHQSPGQAPRLLIYGASSRPTGIPDRFSASGSGTEFTLTISSLEPEDVGLYYCQQNSKWPLTFGGGTKVEIK
In assay [1], B2 gave a Kd of 3.9 nM, an off-rate constant (koff) of 0.000565 s⁻¹ and an association rate constant (kon) of 146000 M⁻¹ s⁻¹.

B3: scFv R4G11 (scFv, V domains shown)
VH: EVQLVQSGGGLVQPGESLRLSCVVSGLSFSNHGVTWVRQAPGKGLDWVSSIDTDGGGTFYGDSVKGRFTISRDDSKNTVSLEMNSLRVEDTAVYYCAARQEYSDYYWGRGVPVTVSS
VL: DIELTQSPSTLSVSPGERATLSCRASQSVGSRLAWYHQRPGQAPRLLIYGASSRPTGIPDRFSGSGSGTEFTLTISSLEPEDVGLYYCQQNSKWPLTFGGGTKVEIK
In the case of B3, in assay [1], the equilibrium dissociation constant (Kd) is 6.3 nM, the off-rate constant (koff) came out at 0.000475 s⁻¹ and the kon stood at 75000 M⁻¹ s⁻¹.

B4: scFv R3H2 (scFv, V domains shown)
VH: EVQLLESGGGLVQPGESLRLSCVVSGLSFSNHGVTWVRQAPGKGLDWVSSIDTDGGGTFYGDSVKGRFTISRDDSKNTVSLEMNSLRVEDTAVYYCAARQEYSDYYWGRGVPVTVSS
VL: DIELTQSPAILSLSPGERATLLCRASQNVGNRLAWYHQRPGQAPRLLIYGASSRPTGIPDRFSGSGSGTEFTLTISSLEPEDVGVYYCQQDSNWPLTFGGGTRVEIK
In assay [1], B4 showed a Kd of 155 nM, an off-rate constant (koff) of 0.000993 s⁻¹ and an on-rate (kon) of 6390 M⁻¹ s⁻¹.

B5: scFv R4G8 (scFv, V domains shown)
VH: EVQLVESGGGLVQPGESLRLSCVVSGLSFSNHGVTWVRQAPGKGLDWVSSIDTDGGGTFYGDSVKGRFTISRDNSKSTVSLEMNSLRVEDTAVYYCAARQEYSDYYWGRGVLVTVSS
VL: DIELTQSPAILSLSPGERATLLCRASQNVGNRLAWYHQRPGQAPRLLIYGASSRPTGIPDRFSGSGSGTEFTLTISSLEPEDVGVYYCQQDSNWPLTFGGGTRVEIK
Regarding B5, in assay [1], the equilibrium dissociation constant (Kd) amounted to 68 nM, the koff was determined as 0.0063 s⁻¹ and the association rate constant (kon) came to 92300 M⁻¹ s⁻¹.

B6: scFv R3C4 (scFv, V domains shown)
VH: QVQLEQSGAEVKKPGASVKVSCKASGFTSGSYAISWVRQAPGQGLEWMGVIIPLVGVTNYAEKFQGRVTFTADTSTSTAYMELSSLRSEDTATYFCARDPYCSGNGCYGWYDVWGPGVLVTVSS
VL: DIELTQSPSSLSASVGDKVTISCRASQYIKSWLAWYQQKPGKAPKLLIYKASSLQSGVPSRFSGSGSGTDFTLTITNVQPEDFATYYCQQYDSAPFTFGPGTKLDIR
In assay [1], B6 came in with a Kd of 33 nM, an off-rate constant (koff) of 0.000386 s⁻¹ and a kon of 11600 M⁻¹ s⁻¹.

B7: scFv R4B11 (scFv, V domains shown)
VH: QVQLEQSGAEVREPGASVKVSCKASGLTSGSYAITWVRQAPGQGLEWMGVIIPLVGVTNYAEKFQGRVTFTADTSTSTAYMELTSLRSDDTATYYCARDPFCSGNGCYGYYDVWGPGVKVTVSS
VL: DIELTQSPSSLSASVGDRVTITCRASQDISSWLAWYQQKPGKAPKLLISSASTLQSGVPSRFSGSGSGTDFTLTINSLQSEDFATYYCQQYNSVPLTFGGGTKVEMK
In assay [1], B7 showed a Kd of 4.6 nM, a koff of 0.000407 s⁻¹ and a kon of 87600 M⁻¹ s⁻¹.

B8: R4B11 scFv-Fc (Fc fusion)
VH: QVQLEQSGAEVREPGASVKVSCKASGLTSGSYAITWVRQAPGQGLEWMGVIIPLVGVTNYAEKFQGRVTFTADTSTSTAYMELTSLRSDDTATYYCARDPFCSGNGCYGYYDVWGPGVKVTVSS
VL: DIELTQSPSSLSASVGDRVTITCRASQDISSWLAWYQQKPGKAPKLLISSASTLQSGVPSRFSGSGSGTDFTLTINSLQSEDFATYYCQQYNSVPLTFGGGTKVEMK
With B8, the values for the binding result in assay [2] and in assay [3] were “binds” and “no binding (tested: 1 ug/ml)”, respectively.
